Drawing on patent publication US20040052799A1, “Nucleic acid and amino acid sequences relating to Helicobacter pylori for diagnostics and therapeutics” (Astra Aktiebolag, priority 1996, published 2004), this text covers Km for 2 proteins.

Substrate in data set [1]: N[C@H](CCC(=O)O)C(=O)O
Briefly: Glutamate racemase activity, conversion of D-glutamate to L-glutamate (two enzyme and single enzyme coupled assays). Type of data set: biochemical, H. pylori. The note with it: other: purified recombinant enzyme; 37.0 °C. On the procedure:
The activity of glutamate racemase, interconversion of the enantiomers of glutamic acid, was measured using D-glutamic acid as substrate. The method of Gallo and Knowles (Gallo, K. A. and Knowles, J. R., 1993, Biochmistry 32, 3981-3990) that was used to measure the glutamate racemase activity of Lactobacillus fermenti was adapted for the measurement of glutamate racemase activity of the H. pylori murI gene product isolated as a recombinant protein from E. coli. […] Initial rates were determined by following the increase in absorbance at 500 nm in a reaction volume of 200 μl containing 50 mM Tris-HCl, pH 7.8, 4% v/v glycerol, 10 mM NAD, 2 mM INT, 60 Units/ml L-glutamate dehydrogenase, 5 Units/ml diaphorase, and varying concentrations of either substrate (from 0.063 mM to 250 mM D-glutamic acid) or purified enzyme (from 1 μg to 50 μg). After a preincubation of all reagents except either the substrate (D-glutamic acid) or the enzyme (murI gene product) for a period of 5 minutes, reactions were initiated by adding the missing ingredient (i.e., the enzyme or the subtrate, as required), and the increase in optical density at 500 nm was measured in a Microplate Spectophotometer System (Molecular Devices, Spectra MAX 250). Measurements were followed for 20 minutes, and initial velocities were derived by calculating the maximum slope for the absorbance increases. […]

Substrate in data set [2]: N[C@@H](CC=O)C(=O)O
The data set can be described thus: Asd assay, reverse reaction, NADPH formation. Type of data set: biochemical, E. coli. The note with it: other: pH 7.5.

B1: H. pylori glutamate racemase (murI gene product) (Helicobacter pylori J99) (protein)
chain: MKIGVFDSGVGGFSVLKSLLKARLFDEIIYYGDSARVPYGTKDPTTIKQFGLEALDFFKPHEIELLIVACNTASALALEEMQKYSKIPIVGVIEPSILAIKRQVEDKNAPILVLGTKATIQSNAYDNALKQQGYLNISHLATSLFVPLIEESILEGELLETCMHYYFTPLEILPEVIILGCTHFPLIAQKIEGYFMGHFALPTPPLLIHSGDAIVEYLQQKYALKNNACTFPKVEFHASGDVIWLERQAKEWLKL
notes: made in house; host or cells: E. coli BL21(DE3) carrying pET-23-murI and pACYC-groE (GroES/GroEL co-expressed)
In the case of B1, the Km in data set [1] came out at 100 µM.

B2: E. coli Asd (Escherichia coli K-12) (protein)
chain: MKNVGFIGWRGMVGSVLMQRMVEERDFDAIRPVFFSTSQLGQAAPSFGGTTGTLQDAFDLEALKALDIIVTCQGGDYTNEIYPKLRESGWQGYWIDAASSLRMKDDAIIILDPVNQDVITDGLNNGIRTFVGGNCTVSLMLMSLGGLFANDLVDWVSVATYQAASGGGARHMRELLTQMGHLYGHVADELATPSSAILDIERKVTTLTRSGELPVDNFGVPLAGSLIPWIDKQLDNGQSREEWKGQAETNKILNTSSVIPVDGLCVRVGALRCHSQAFTIKLKKDVSIPTVEELLAAHNPWAKVVPNDREITMRELTPAAVTGTLTTPVGRLRKLNMGPEFLSAFTVGDQLLWGAAEPLRRMLRQLA
notes: made in house; host or cells: E. coli HMS174 pLysS, pET28b
As to B2, in data set [2], the Michaelis constant (Km) was 104 µM.
